The values below come from patent US20220332804A1 (CSL INNOVATION, published 2022).

Numbering of substitutions follows the chain as printed.

Assay in all cases: SPR, KD relative to WT C2;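 further: biacore SPR at 37 °C, anti-C2 mAbs captured via immobilised goat anti-human IgG, C2 alanine or serine surface mutants as analytes, 1:1 model fitted, double-referenced sensograms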
One test deals with T1, human C2 N424A (human, UniProt P06681 21-752).
T1 sequence: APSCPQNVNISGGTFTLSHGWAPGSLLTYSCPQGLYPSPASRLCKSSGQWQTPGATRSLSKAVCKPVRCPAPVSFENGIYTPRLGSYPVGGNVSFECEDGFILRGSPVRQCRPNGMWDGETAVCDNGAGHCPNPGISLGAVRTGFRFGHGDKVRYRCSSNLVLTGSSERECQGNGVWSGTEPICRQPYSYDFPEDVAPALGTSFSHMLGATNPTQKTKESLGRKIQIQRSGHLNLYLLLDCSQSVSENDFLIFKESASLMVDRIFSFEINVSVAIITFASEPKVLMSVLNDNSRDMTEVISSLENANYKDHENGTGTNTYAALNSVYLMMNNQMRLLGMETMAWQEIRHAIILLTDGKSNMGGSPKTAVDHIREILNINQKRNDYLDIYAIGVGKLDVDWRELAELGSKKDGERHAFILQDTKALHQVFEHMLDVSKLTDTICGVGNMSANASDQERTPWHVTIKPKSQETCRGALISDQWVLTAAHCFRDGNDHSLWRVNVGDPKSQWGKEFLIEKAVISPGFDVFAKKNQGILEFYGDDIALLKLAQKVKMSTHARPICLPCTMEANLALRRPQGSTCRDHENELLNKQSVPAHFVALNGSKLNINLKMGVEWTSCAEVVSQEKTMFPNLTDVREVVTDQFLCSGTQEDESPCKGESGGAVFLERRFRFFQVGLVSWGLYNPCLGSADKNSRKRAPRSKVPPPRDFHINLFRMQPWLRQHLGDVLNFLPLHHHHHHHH

Another test addresses T2, human C2 N467A (human, UniProt P06681 21-752).
T2 sequence: T1 sequence with A404N, N447A

For a further test, the target named is T3, human C2 R714A (human, UniProt P06681 21-752).
T3 sequence: T1 sequence with A404N, R694A

Another test deals with T4, human C2 L706A (human, UniProt P06681 21-752).
T4 sequence: T1 sequence with A404N, L686A

B1: RF16-226 (antibody, human IgG4 S228P, lambda)
heavy: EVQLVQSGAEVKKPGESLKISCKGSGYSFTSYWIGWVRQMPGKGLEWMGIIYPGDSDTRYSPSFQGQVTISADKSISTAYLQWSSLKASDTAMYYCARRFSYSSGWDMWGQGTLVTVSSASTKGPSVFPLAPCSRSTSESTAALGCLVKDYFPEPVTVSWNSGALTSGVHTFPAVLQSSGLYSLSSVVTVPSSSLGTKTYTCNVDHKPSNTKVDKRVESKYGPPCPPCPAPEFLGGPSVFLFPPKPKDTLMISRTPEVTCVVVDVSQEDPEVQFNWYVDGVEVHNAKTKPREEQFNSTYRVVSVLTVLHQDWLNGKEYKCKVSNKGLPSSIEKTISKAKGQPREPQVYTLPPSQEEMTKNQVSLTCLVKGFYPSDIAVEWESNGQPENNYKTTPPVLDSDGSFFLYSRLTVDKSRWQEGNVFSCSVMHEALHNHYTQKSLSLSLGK
light: SYELTQPPSVSVSPGQTARITCSGDALTSKYVAWYQQKSGLAPLLVIYEDTRRPSGIPAKFSGSSSGSVATLTISGAHGDDEADYYCYSTDASGHQRVFGGGTKLTVLSQPKAAPSVTLFPPSSEELQANKATLVCLISDFYPGAVTVAWKADGSPVKAGVETTKPSKQSNNKYAASSYLSLTPEQWKSHRSYSCQVTHEGSTVEKTVAPTECS
notes: pH-dependent anti-C2 antibody from a phage display library; also called WT
On to B1, for which the Fold diff was determined as 0 fold with human C2 N424A, 2 fold in the test with human C2 N467A, 5 fold with human C2 R714A and 23 fold with human C2 L706A.
